Km, kcat and kcat/Km data for 2 proteins are collected here from article PMC11851464, “Development of a Spectrophotometric Assay for the Cysteine Desulfurase from Staphylococcus aureus” (Antibiotics, 2025).

As usually defined, the Km is the substrate concentration at which the rate is half of its maximum. What is called kcat is the maximal rate divided by the concentration of active sites. For orientation: kcat/Km means the turnover number divided by the Michaelis constant.

Substrate in data set [1]: N[C@@H](CS)C(=O)O
Nature of the data set: Michaelis–Menten kinetics, Ala-NDA assay. The note with it: pyridoxal-5′-phosphate (PLP). Type of data set: biochemical, Bacillus subtilis.

Substrate in the data set “purified protein”: N[C@@H](CS)C(=O)O
The data set is described as follows: purified protein. The format is biochemical, Staphylococcus aureus. The conditions noted are these: pyridoxal-5′-phosphate (PLP) Cys displaces Lys250 and binds PLP to form Cys-aldimine; catalytic Cys389.

B1: cysteine desulfurase SufS (BsSufS) (Bacillus subtilis subsp. subtilis str. 168) (protein)
chain: MNITDIREQFPILHQQVNGHDLVYLDSAATSQKPRAVIETLDKYYNQYNSNVHRGVHTLGTRATDGYEGAREKVRKFINAKSMAEIIFTKGTTTSLNMVALSYARANLKPGDEVVITYMEHHANIIPWQQAVKATGATLKYIPLQEDGTISLEDVRETVTSNTKIVAVSHVSNVLGTVNPIKEMAKIAHDNGAVIVVDGAQSTPHMKIDVQDLDCDFFALSSHKMCGPTGVGVLYGKKALLENMEPAEFGGEMIDFVGLYESTWKELPWKFEAGTPIIAGAIGLGAAIDFLEEIGLDEISRHEHKLAAYALERFRQLDGVTVYGPEERAGLVTFNLDDVHPHDVATVLDAEGIAVRAGHHCAQPLMKWLDVTATARASFYLYNTEEEIDKLVEALQKTKEYFTNVF
As for B1, in data set [1], the Km was determined as 440 ± 190 µM, the kcat stood at 0.0817 ± 0.0117 s⁻¹ and the kcat/Km came out at 185 ± 107 M⁻¹ s⁻¹.

B2: cysteine desulfurase SufS (SaSufS) (Staphylococcus aureus subsp. aureus USA300) (protein)
chain: MAEHSFDVNEVIKDFPILDQKVNGKRLAYLDSTATSQTPVQVLNVLEDYYKRYNSNVHRGVHTLGSLATDGYENARETVRRFINAKYFEEIIFTRGTTASINLVAHSYGDANVEEGDEIVVTEMEHHANIVPWQQLAKRKNATLKFIPMTADGELNIEDIKQTINDKTKIVAIAHISNVLGTINDVKTIAEIAHQHGAIISVDGAQAAPHMKLDMQEMNADFYSFSGHKMLGPTGIGVLFGKRELLQKMEPIEFGGDMIDFVSKYDATWADLPTKFEAGTPLIAQAIGLAEAIRYLERIGFDAIHKYEQELTIYAYEQMSAIEGIEIYGPPKDRRAGVITFNLQDVHPHDVATAVDTEGVAVRAGHHCAQPLMKWLNVSSTARASFYIYNTKEDVDQLINALKQTKEFFSYEF
For B2, in “purified protein”, the Km stood at 600 ± 170 µM, the kcat worked out at 0.0683 ± 0.00833 s⁻¹ and the kcat/Km turned out to be 113 ± 45 M⁻¹ s⁻¹.
